± gives the uncertainty stated by the source.
Assay: self-splicing fitness, log relative to wild type (ln ratio); higher = more splicing; Tetrahymena group I intron in knt gene, E. coli kanamycin selection, DiMSum; sequences stand for … in CUCUCU…GGAGGGAAAAGUUAUCAGGCAUGCACCUGGUAGCUAGUCUUUAAACCAAUAGAUUGCAUCGGUUUAAAAGGCAAGACCGUCAAAUUGCGGGAAAGGGGUCAACAGCCGUUCAGUACCAAGUCUCAGGGGAAACUUUGAGAUGGCCUUGCAAAGGGUAUGGUAAUAAGCUGACGGACAUGGUCCUAACCACGCAGCCAAGUCCUAAGUCAACAGAUCUUCUGUUGAUAUGGAUGCAGUUCACAGACUAAAUGUCGGUCGGGGAAGAUGUAUUCUUCUCAUAAGAUAUAGUCGGACCUCUCCUUAAUGGGAGCUAGCGGAUGAAGUGAUGCAACACUGGAGCCGCUGGGAACUAAUUUGUAUGCGAAAGUAUAUUGAUUAGUUUUGGAGUACUCGUGGUCG
In short: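 Fitness was computed with DiMSum as the error-weighted combination of replicate fold changes, kanamycin versus none, each normalised to wild type. The library randomised all eight intron nucleotides of the P1ex region, with the intron placed in the knt kanamycin-resistance gene on pET-22b(+) in E. coli BL21(DE3). Six replicate transformations were grown overnight at 37°C or 30°C on LB agar with or without 25 μg/mL kanamycin, plus 100 μg/mL carbenicillin, 50 μM IPTG and 0.2% rhamnose. Pooled colonies were amplicon-sequenced on an Illumina HiSeq 2500.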

| Sequence | self-splicing fitness (ln) (30 °C) | self-splicing fitness (ln) (37 °C) |
| --- | --- | --- |
| ACCGAGCAAUAUUACGAACC | -2.9 ± 0.39 |  |
| ACCGAGCAAUAUUACGAAGU | -1.93 ± 0.16 | -1.68 ± 0.22 |
| ACCGAGCAAUAUUACGACGG | -2.24 ± 0.2 | -0.893 ± 0.21 |
| ACCGAGCAAUAUUACGACGU | -2.04 ± 0.1 | -0.637 ± 0.11 |
| ACCGAGCAAUAUUACGACUC | -1.44 ± 0.29 | -1.59 ± 0.22 |
| ACCGAGCAAUAUUACGACUU | -1.12 ± 0.087 | -0.353 ± 0.11 |
| ACCGAGCAAUAUUACGAGGA | -2.77 ± 0.21 | -2.99 ± 0.38 |
| ACCGAGCAAUAUUACGAGUC | -4.62 ± 0.3 | -3.25 ± 0.22 |
| ACCGAGCAAUAUUACGCAAU | -2.71 ± 0.16 | -2.36 ± 0.32 |
| ACCGAGCAAUAUUACGCAGA | -2.2 ± 0.19 | -2.51 ± 0.23 |
| ACCGAGCAAUAUUACGCCCG | -2.05 ± 0.29 | -1.28 ± 0.33 |
| ACCGAGCAAUAUUACGCGCC | -3.19 ± 0.25 | -3.32 ± 0.43 |
| ACCGAGCAAUAUUACGCGUU | -2.95 ± 0.16 | -1.58 ± 0.18 |
| ACCGAGCAAUAUUACGCUGG | -4.24 ± 0.26 | -2.13 ± 0.21 |
| ACCGAGCAAUAUUACGGAAG | -4.18 ± 0.34 | -1.93 ± 0.43 |
| ACCGAGCAAUAUUACGGCCA | -0.778 ± 0.13 | -0.469 ± 0.14 |
| ACCGAGCAAUAUUACGGCCC | -2.37 ± 0.21 | -1.89 ± 0.29 |
| ACCGAGCAAUAUUACGGCGC | -1.24 ± 0.14 | -0.396 ± 0.16 |
| ACCGAGCAAUAUUACGGCUA | -0.869 ± 0.096 | -0.288 ± 0.091 |
| ACCGAGCAAUAUUACGGCUG | -1.28 ± 0.073 | -1.24 ± 0.1 |
| ACCGAGCAAUAUUACGGGCG | -1.64 ± 0.083 | -0.0363 ± 0.088 |
| ACCGAGCAAUAUUACGGUCA | -1.22 ± 0.12 | -1.06 ± 0.14 |
| ACCGAGCAAUAUUACGGUUC | -3.5 ± 0.43 |  |
| ACCGAGCAAUAUUACGUCCA |  | -0.553 ± 0.21 |
| ACCGAGCAAUAUUACGUGAU | -3.36 ± 0.13 | -2.06 ± 0.12 |

| Sequence | self-splicing fitness (ln) (30 °C) | self-splicing fitness (ln) (37 °C) |
| --- | --- | --- |
| ACCUAGCAAUAUUACGAAUC | -2.94 ± 0.15 | -1.07 ± 0.13 |
| ACCUAGCAAUAUUACGACCA | -1.25 ± 0.16 | 0.323 ± 0.17 |
| ACCUAGCAAUAUUACGAGCU | -0.918 ± 0.075 | -0.237 ± 0.09 |
| ACCUAGCAAUAUUACGCUCU | -0.243 ± 0.096 | -0.447 ± 0.098 |
| ACCUAGCAAUAUUACGCUUC | -1.2 ± 0.1 | -1.1 ± 0.11 |
| ACCUAGCAAUAUUACGGACG | -0.864 ± 0.07 | -0.114 ± 0.1 |
| ACCUAGCAAUAUUACGGAGC | -2.67 ± 0.12 | -1.28 ± 0.14 |
| ACCUAGCAAUAUUACGGCAC | -0.933 ± 0.062 | -0.492 ± 0.07 |
| ACCUAGCAAUAUUACGGCAG | -3.99 ± 0.19 | -1.16 ± 0.14 |
| ACCUAGCAAUAUUACGGGCG | -0.0397 ± 0.068 | -0.0691 ± 0.084 |
| ACCUAGCAAUAUUACGGGUU | -2.78 ± 0.14 | -1.95 ± 0.14 |
| ACCUAGCAAUAUUACGGUUA | -2.38 ± 0.18 | -1.57 ± 0.14 |
| ACCUAGCAAUAUUACGUAGC | -1.81 ± 0.12 | -0.966 ± 0.14 |
| ACCUAGCAAUAUUACGUCCG | -2.21 ± 0.14 | -0.377 ± 0.19 |
| ACCUAGCAAUAUUACGUGAG | -0.357 ± 0.048 | -0.0328 ± 0.061 |
| ACCUAGCAAUAUUACGUGCU | -2.56 ± 0.092 | -1.31 ± 0.098 |
| ACCUAGCAAUAUUACGUUCA | -1.4 ± 0.099 | -1.05 ± 0.12 |
| ACCUAGCAAUAUUACGUUCC | -1.5 ± 0.086 | -0.914 ± 0.12 |
| ACGAAGCAAUAUUACGAAAU | -3.34 ± 0.2 | -1.5 ± 0.17 |
| ACGAAGCAAUAUUACGAACG | -1.3 ± 0.091 | -0.288 ± 0.11 |
| ACGAAGCAAUAUUACGAACU | -0.572 ± 0.084 | -0.697 ± 0.093 |
| ACGAAGCAAUAUUACGAGGG | -3.54 ± 0.17 | -3.26 ± 0.3 |
| ACGAAGCAAUAUUACGAUUG | -2.46 ± 0.14 | -0.909 ± 0.15 |
| ACGAAGCAAUAUUACGCACC | -0.755 ± 0.16 | -0.0218 ± 0.22 |

Source: the supplement of paper PMC7877785
